We go through 13 molecules from patent EP4810515A1 (Shanghai Haiju Biological Technology Co., Ltd., dated 2026).

The target in assay [1] is T1, human GDF15 recombinant protein (ACRO, GD5-H5149) (human, UniProt Q99988 197-308).
T1 sequence (looked up): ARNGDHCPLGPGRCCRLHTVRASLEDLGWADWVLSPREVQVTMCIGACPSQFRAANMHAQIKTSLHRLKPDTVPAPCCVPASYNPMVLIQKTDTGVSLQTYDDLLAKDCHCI
Kind of assay: cell-based or functional assay.

The target of assay [2] is T2, cynomolgus monkey GDF15 recombinant protein (Kactus, GDF-CM215) (cynomolgus monkey, UniProt G7PWZ3 197-308, limits assumed).
T2 construct: also called cynoGDF-15.hFc; cynoGDF15; not shown: human Fc (hFc)
T2 sequence (looked up): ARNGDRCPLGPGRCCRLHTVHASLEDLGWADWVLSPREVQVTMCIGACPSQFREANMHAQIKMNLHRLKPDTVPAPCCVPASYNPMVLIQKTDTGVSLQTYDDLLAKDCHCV
Kind of assay: ELISA, coated cynoGDF-15.hFc.

Assay [3] has as its target T1, human GDF15 recombinant protein (ACRO, …). Kind of assay: cell-based or functional assay. The source holds these as a separate data set.
Assay [4] shares this target. Briefly: ELISA, coated hGDF-15.His. A general note: ELISA stands for enzyme-linked immunosorbent assay.
The target in assay [5] is T3, mouse GDF15 recombinant protein (Kactus, GDF-MM215) (mouse, UniProt Q9Z0J7 189-303, limits assumed).
T3 construct: also called mGDF-15.hFc; murine GDF15; not shown: human Fc (hFc)
T3 sequence (looked up): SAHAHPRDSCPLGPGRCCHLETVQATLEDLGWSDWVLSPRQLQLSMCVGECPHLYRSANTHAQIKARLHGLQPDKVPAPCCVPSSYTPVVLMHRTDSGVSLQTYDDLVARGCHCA
Kind of assay: ELISA, coated mGDF-15.hFc.

Assay [6] concerns the target T3, mouse GDF15 recombinant protein …. Kind of assay: ELISA, coated mGDF-15.hFc 2 ug/mL.

B1: G2-CH5-HP1-hIgG1 (LALAGA, -K) (antibody, V domains shown)
VH: EVLLQQSGPELVKPGASVKIACKASGYTLTDYNLNWVKQSHGKSLEWIGDLNPYNAGIIYNQKFKGKATLTVDKSSSTAYMELRSLTSEDIAVYYCAREGRGGAWFDSWGQGTLVTVSA
VL: DIQMTQSSSSFSVSLGDRVTITCKASEDIYHRLAWYQQKPGNAPRLLISGATSLETGIPSRFSGSGSGKDYALSITSLQTEDVGTYYCQQYWSPPFTFGSGTKLEIKR
B1: the “IC50, reporter gene cell strain (mGFRAL)” value in assay [1] was found to be 0.18 µg/mL.

B2: G2-CH5-HP2-hIgG1 (LALAGA, -K) (antibody, V domains shown)
VH: EVLLQQSGPELVKPGASVKIACKASGYTLTDYNLNWVKQSHGKSLEWIGDLNPYNQGIIYNQKFKGKATLTVDKSSSTAYMELRSLTSEDIAVYYCAREGRGGAWFDSWGQGTLVTVSA
VL: DIQMTQSSSSFSVSLGDRVTITCKASEDIYHRLAWYQQKPGNAPRLLISGATSLETGIPSRFSGSGSGKDYALSITSLQTEDVGTYYCQQYWSPPFTFGSGTKLEIKR
As to B2, the “IC50, reporter gene cell strain (mGFRAL)” value in assay [1] stood at 0.142 µg/mL.

B3: G2-CH7 (antibody, human IgG1, kappa, V domains shown)
VH: EVQLQQSGPELVKPGASLKISCKASGYSFTGYNMNWVKQSHGKNLEWIGLINPSNGGSSYSQKFKGKATLTVDKSSSTAYMELLSLTSKDSAVYYCAREVRLGNALDYWGQGTSVTVSS
VL: DIQMTQSPASLSVSVGETVTITCRASENIYSNLAWYQQKQGKSPQLLVYAATNLGDGAPSRFSGSGSGTQYSLKINSLQSEDFGSYYCQHFWGTPWTFGGGTKLEIKR
notes: chimeric: murine variable regions on human IgG1 constant region mutant (LALAGA, -K)
One may read the EC50 as the concentration giving half of the maximal effect. For B3, the values for the EC50 in assay [2], in assay [4] and in assay [5] were 0.104 nM, 0.00552 nM and 0.12 nM, respectively. For the same molecule, the “IC50, luciferase reporter gene cell strain (mGFRAL/RET HEK293) with hGDF15” value (shortened to “IC50 … (mGFRAL/RET HEK293) with hGDF15”) in assay [3] turned out to be 3.83 nM.

B4: G2-CH9 (antibody, human IgG1, kappa, V domains shown)
VH: EVQLQQSGPELVKPGASMKISCKASGYSFTGYNMNWVKQSQGKNLEWIGLINPYNGGTIYNQKFKGKATLTVDKSSTTAYMELLSLTSEDSAVYYCAREVRLGNAMDYWGQGTSVTVSS
VL: DIQMTQSPASLSVSVGETVTITCRASENIYSNLAWYQQKQGKSPQLLVSAATNLADGVPSRFSGSGSGTQYSLKIISLQSVDFGSYYCQHFWGTPWTFGGGTKLEIKR
notes: as for B3
With B4, the EC50 is 0.097 nM in assay [2], 0.00634 nM in assay [4] and 0.11 nM in assay [5]. Further, the “IC50 … (mGFRAL/RET HEK293) with hGDF15” value in assay [3] was 1.42 nM.

B5: G2-CH2-LP1-hIgG1 (LALAGA, -K) (antibody, V domains shown)
VH: QVTLKESGPGILQPSQTLSLTCSFSGFSLTISGMGVSWIRQPSGKGLEWLAHIYWDDDKRYNPSLKSRLTISKDTSSNQVFLEITSVDTADTATYYCVRAGWDFFDYWGQGTTLTVSS
VL: DIVMTQSQKFMSTSVGDRVSVTCKASQNVGTNVAWYQQKPGQSPKGLIYSASYRYSGVPDRFTGSGSGTDFTLTISNVQSEDLAEYFCQQYNAYPWTFGGGTKLEIKR
On to B5, for which the “IC50, reporter gene cell strain (mGFRAL)” value in assay [1] is 0.088 µg/mL.

B6: G2-CH17 (antibody, human IgG1, kappa, V domains shown)
VH: QVTLKESGPGILQPSQTLSLTCSFSGFSLNTSGMGVSWIRQPSGKGLEWLAHIYWDDDKRYNPSLKSRLTISKDTSRNQVFLKITGVDTADTAAYYCARTGWDFFDIWGQGTTLTVSS
VL: DIVMTQSQKFMSTSVGDRVSVTCKASQNVGSNVAWYQQKPGQSPKALIYSASYRYSGVPDRFTGSGSGTDFTLTITNVQSEDLAEYFCQQYKSYPLTFGAGTKLELKR
notes: as for B3
As for B6, the EC50 stood at 0.13 nM in assay [2] and 0.00393 nM in assay [4]. For the same molecule, the binding result in assay [6] was “no binding”.

B7: G2-CH2-LP3-hIgG1 (LALAGA, -K) (antibody, V domains shown)
VH: QVTLKESGPGILQPSQTLSLTCSFSGFSLTISGMGVSWIRQPSGKGLEWLAHIYWDDDKRYNPSLKSRLTISKDTSSNQVFLEITSVDTADTATYYCVRAGWDFFDYWGQGTTLTVSS
VL: DIVMTQSQKFMSTSVGDRVSVTCKASQNVGTNVAWYQQKPGQSPKGLIYSASYRYSGVPDRFTGSGSGTDFTLTISNVQSEDLAEYFCQQYNQYPWTFGGGTKLEIKR
For B7, the “IC50, reporter gene cell strain (mGFRAL)” value in assay [1] was found to be 0.093 µg/mL.

B8: G2-CH2-LP2-hIgG1 (LALAGA, -K) (antibody, V domains shown)
VH: QVTLKESGPGILQPSQTLSLTCSFSGFSLTISGMGVSWIRQPSGKGLEWLAHIYWDDDKRYNPSLKSRLTISKDTSSNQVFLEITSVDTADTATYYCVRAGWDFFDYWGQGTTLTVSS
VL: DIVMTQSQKFMSTSVGDRVSVTCKASQNVGTNVAWYQQKPGQSPKGLIYSASYRYSGVPDRFTGSGSGTDFTLTISNVQSEDLAEYFCQQYESYPWTFGGGTKLEIKR
As for B8, the “IC50, reporter gene cell strain (mGFRAL)” value in assay [1] is 0.091 µg/mL.

B9: G2-CH10 (antibody, human IgG1, kappa, V domains shown)
VH: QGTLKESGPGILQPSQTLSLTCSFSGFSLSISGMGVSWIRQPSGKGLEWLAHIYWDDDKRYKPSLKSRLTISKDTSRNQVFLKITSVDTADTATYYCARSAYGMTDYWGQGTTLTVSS
VL: DIQMTQTTSSLSASLGDRVTISCRASQDISNYLNWYQQKPDGTVKLLIHSASNLHSGVPSRFSGSGSGTDYSLTISNLEQEDIATYFCQQYNMFPWTFGGGTKLEIKR
notes: as for B3
B9: the values for the EC50 in assay [2], in assay [4] and in assay [5] were 0.0841 nM, 0.00592 nM and 0.25 nM, respectively. Further, the “IC50 … (mGFRAL/RET HEK293) with hGDF15” value in assay [3] came to 3.4 nM.

B10: G2-CH8-LP1-hIgG1 (LALAGA, -K) (antibody, V domains shown)
VH: QVTLKESGPGILQPSQTLSLTCSFSGFSLSTYGIGVGWIRQPSGKGLEWLAHIWWNDNKYYNTALKSRLTISKDTSNNQVFLKIASVDTADTATYYCARLAYDYVDSWGQGTTLTVSS
VL: DIVMTQAAFSNPVTLGTSASISCRSSKSLLHSNAITYLYWYLQKPGQSPQLLIYQMSNLVSGVPDRFSSSGSGTDFTLRISRVEAEDVGVYYCAQNLELPPTFGAGTKLELKR
In the case of B10, the “IC50, reporter gene cell strain (mGFRAL)” value in assay [1] was found to be 0.116 µg/mL.

B11: G2-CH8 (antibody, human IgG1, kappa, V domains shown)
VH: QVTLKESGPGILQPSQTLSLTCSFSGFSLSTYGIGVGWIRQPSGKGLEWLAHIWWNDNKYYNTALKSRLTISKDTSNNQVFLKIASVDTADTATYYCARLAYDYVDSWGQGTTLTVSS
VL: DIVMTQAAFSNPVTLGTSASISCRSSKSLLHSNGITYLYWYLQKPGQSPQLLIYQMSNLVSGVPDRFSSSGSGTDFTLRISRVEAEDVGVYYCAQNLELPPTFGAGTKLELKR
notes: as for B3
Regarding B11, the values for the EC50 in assay [2], in assay [4] and in assay [5] were 0.0934 nM, 0.00122 nM and 0.37 nM, respectively. Moreover, in assay [3], the “IC50 … (mGFRAL/RET HEK293) with hGDF15” value was 3.05 nM.

B12: G2-CH8-LP2-hIgG1 (LALAGA, -K) (antibody, V domains shown)
VH: QVTLKESGPGILQPSQTLSLTCSFSGFSLSTYGIGVGWIRQPSGKGLEWLAHIWWNDNKYYNTALKSRLTISKDTSNNQVFLKIASVDTADTATYYCARLAYDYVDSWGQGTTLTVSS
VL: DIVMTQAAFSNPVTLGTSASISCRSSKSLLHSNQITYLYWYLQKPGQSPQLLIYQMSNLVSGVPDRFSSSGSGTDFTLRISRVEAEDVGVYYCAQNLELPPTFGAGTKLELKR
Regarding B12, the “IC50, reporter gene cell strain (mGFRAL)” value in assay [1] was determined as 0.1 µg/mL.

B13: G2-CH8-LP3-hIgG1 (LALAGA, -K) (antibody, V domains shown)
VH: QVTLKESGPGILQPSQTLSLTCSFSGFSLSTYGIGVGWIRQPSGKGLEWLAHIWWNDNKYYNTALKSRLTISKDTSNNQVFLKIASVDTADTATYYCARLAYDYVDSWGQGTTLTVSS
VL: DIVMTQAAFSNPVTLGTSASISCRSSKSLLHSEGITYLYWYLQKPGQSPQLLIYQMSNLVSGVPDRFSSSGSGTDFTLRISRVEAEDVGVYYCAQNLELPPTFGAGTKLELKR
Take B13: the “IC50, reporter gene cell strain (mGFRAL)” value in assay [1] was 0.081 µg/mL.
